Consider twelve molecules from patent publication US20190135918A1 (ICHNOS SCIENCES, published 2019).

Numbering of substitutions follows the chain as printed. Read-outs that look alike come from different tables or passages of the source.

For assay [1], the target named is T1, human CD3 epsilon on cells (human, UniProt P07766 23-207).
T1 construct: whole, on cells; On cells it stands in the CD3/TCR complex; also called HPB-ALL cells (human CD3 epsilon positive T cell tumour line); CD3 on human T cells
Kind of assay: FACS staining of HPB-ALL cells, human IgG1 format, graded relative to chimeric OKT3.
Protocol: (§1) HPB-ALL cells (DSMZ, Braunschweig, Germany, Cat. No: ACC483) were used as CD3 positive cell line for FACS staining. […] After washing, cells were incubated with a 1/200 dilution of anti-Human Fc-PE (EBioscience, Vienna, Austria) for 45 min on ice. Cells were then washed again and resuspended in 200 ul FACS buffer.

Assay [2] has as its target T1, human CD3 epsilon on cells. The assay is described as above. The source holds these as a separate data set.
Protocol: as §1
The target in assay [3] is T2, soluble extracellular region of human CD38 fused to a 6-His-tag (human, UniProt P28907 43-300).
T2 construct: Expressed with the murine VJ2C leader; also called human CD38 protein; human CD38 antigen
Kind of assay: SPR, antibody captured on protein G, CD38 injected.

In assay [4] the target is T2, soluble extracellular region of human …. Kind of assay: SPR. For orientation: Surface plasmon resonance follows binding to a sensor surface in real time, without labels.
The target of assay [5] is T3, soluble extracellular region of cynomolgus monkey CD38 antigen fused to a 6-His-tag (cynomolgus monkey, UniProt Q5VAN0 45-301).
T3 construct: also called cynomolgus CD38
Kind of assay: SPR.

B1: VH5/VL3 (antibody, human IgG1, kappa, V domains shown)
VH: EVQLVESGGGLVQPGGSLRLSCAASGYTFTRYTMHWVRQAPGKGLEWVGYINPSRGYTRYADSVKGRFTLSTDKSKNTAYLQMNSLRAEDTAVYYCARYYDDHYCLDYWGQGTLVTVSS
VL: DIQLTQSPSSLSASVGDRVTITCRASSSVSYVAWYQQKPGKAPKLLIYDTSKLYSGVPSRFSGSRSGTDYTLTISSLQPEDFATYYCQQWSSNPPTFGQGTKVEIKR
notes: human IgG1; also called humanized OKT3 VH5/VL3 antibody; copies: 2 + 2
Take B1: the binding result in assay [1] is “binds”.

B2: VH6/VL5 (antibody, human IgG1, kappa, V domains shown)
VH: B1 VH with V48I
VL: B1 VL with V32M, A33N
notes: human IgG1; also called humanized OKT3 VH6/VL5 antibody; copies: 2 + 2
As for B2, the binding result in assay [1] was “binds”.

B3: humanized OKT3 VH8/VL4 antibody (antibody, human IgG1, V domains shown)
VH: B1 VH with V48I, R59Y
VL: B1 VL with L45R, L46W
notes: Human IgG1; copies: 2 + 2
For B3, in assay [2], the binding result was “binds”.

B4: VH5/VL6 (antibody, human IgG1, kappa, V domains shown)
VH: B1 VH
VL: B1 VL with L45R, L46W, P95F
notes: human IgG1; also called humanized OKT3 VH5/VL6 antibody; copies: 2 + 2
Take B4: the binding result in assay [1] is reported as “binds”.

B5: VH6/VL6 (antibody, human IgG1, kappa, V domains shown)
VH: B1 VH with V48I
VL: B1 VL with L45R, L46W, P95F
notes: human IgG1; also called humanized OKT3 VH6/VL6 antibody; copies: 2 + 2
B5: the binding result in assay [1] was “binds”.

B6: humanized OKT3 VH11/VL4 antibody (antibody, human IgG1, V domains shown)
VH: B1 VH with V48I, R59Y, N84S
VL: B1 VL with L45R, L46W
notes: Human IgG1; copies: 2 + 2
Take B6: the binding result in assay [2] is listed as “binds”.

B7: VH6/VL4 (antibody, human IgG1, kappa, V domains shown)
VH: B1 VH with V48I
VL: B1 VL with L45R, L46W
notes: human IgG1; also called humanized OKT3 VH6/VL4 antibody; copies: 2 + 2
B7: in assay [1], the binding result was “binds”.

B8: VH5/VL4 (antibody, human IgG1, kappa, V domains shown)
VH: B1 VH
VL: B1 VL with L45R, L46W
notes: human IgG1; also called humanized OKT3 VH5/VL4 antibody; copies: 2 + 2
For B8, the binding result in assay [1] was “binds”.

B9: humanized HB-7 best-fit antibody (antibody, human IgG1, kappa, V domains shown)
VH: QVQLQESGPGLVKPSETLSLTCTVSGFSLISYGVHWVRQPPGKGLEWLGVIWRGGSTDYNAAFMSRLTISKDNSKNQVSLKLSSVTAADTAVYFCAKTLITTGYAMDYWGQGTLVTVSS
VL: DIQLTQSPSSLSASVGDRVTITCRASEDIYNRLAWYQQKPGKAPKLLISGATSLETGVPSRFSGSGSGKDYTLTISSLQPEDFATYYCQQYWSTPTFGQGTKLEIKR
notes: Human IgG1 format
B9 gave a Kd in assay [3] of 3.6 nM.

B10: first humanized 9G7 antibody prototype (best-fit approach, post CDR grafting) (antibody, human IgG1, kappa, V domains shown)
VH: QVTLKESGPTLVKPTQTLTLTCTFSGLSLSTSGKGVGWIRQPPGKALEWLAHIWWDDDKRYNPALKSRLTITKDTSKNQVVLTMTNMDPVDTATYYCARIELGRSYVMDYWGQGTLVTVSS
VL: DIQMTQSPSSLSASVGDRVTITCQASQDVITSVAWFQQKPGKAPKLLIYSASYRYTGVPSRFSGSGSGTDFTFTISSLQPEDIATYYCQQHYTIPLTFGQGTKLEIKR
notes: Human IgG1 isotype; also called first antibody prototype; first humanized prototype
With B10, in assay [4], the Kd was determined as 1 nM and the “fold lower binding than the mouse parental antibody” value stood at 3 fold.

B11: humanized 9G7 best-framework antibody (antibody, human IgG1, kappa, V domains shown)
VH: EVQLVESGGGLVQPGGSLRLSCAFSGLSLSTSGKGVGWIRQAPGKGLEWLAHIWWDDDKRYNPALKSRLTISKDTSKNTVYLQMNSLRAEDTAVYYCARIELGRSYVMDYWGQGTLVTVSS
VL: B10 VL with Q24R, F73L, I83F, L104V
notes: Human IgG1
In the case of B11, the Kd in assay [3] worked out at 0.4 nM; in assay [5] it was 1 nM.

B12: chimeric HB-7 antibody (antibody, human IgG1, kappa, V domains shown)
VH: KVQLQESGPSLVQPSQRLSITCTVSGFSLISYGVHWVRQSPGKGLEWLGVIWRGGSTDYNAAFMSRLSITKDNSKSQVFFKMNSLQADDTAIYFCAKTLITTGYAMDYWGQGTTVTVSS
VL: DIELTQSPSSFSVSLGDRVTITCKASEDIYNRLAWYQQKPGNAPRLLISGATSLETGVPSRFSGSGSGKDYTLSITSLQTEDVATYYCQQYWSTPTFGGGTKLEIKR
For the molecule B12, binding in assay [3] was characterised by a dissociation constant (Kd) of 2.5 nM.

By Kd is commonly meant the constant that tells how readily two partners part at equilibrium.
